Numbering of substitutions follows the chain as printed. In names and notes the source's numbering stands.
T1: SELL
T1 construct: also called SELL-Fc-His (R&D Systems); L-Selectin
T1 chain: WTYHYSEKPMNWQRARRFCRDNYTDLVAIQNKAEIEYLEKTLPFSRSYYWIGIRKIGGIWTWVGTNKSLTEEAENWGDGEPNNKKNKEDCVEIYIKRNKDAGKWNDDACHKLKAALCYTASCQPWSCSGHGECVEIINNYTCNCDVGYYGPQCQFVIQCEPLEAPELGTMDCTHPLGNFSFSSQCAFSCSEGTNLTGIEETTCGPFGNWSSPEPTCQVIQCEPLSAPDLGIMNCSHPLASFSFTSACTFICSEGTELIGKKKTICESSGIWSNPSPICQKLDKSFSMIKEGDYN

T2: IGSF11
T2 construct: also called IGSF11-Fc (R&D Systems)
T2 chain: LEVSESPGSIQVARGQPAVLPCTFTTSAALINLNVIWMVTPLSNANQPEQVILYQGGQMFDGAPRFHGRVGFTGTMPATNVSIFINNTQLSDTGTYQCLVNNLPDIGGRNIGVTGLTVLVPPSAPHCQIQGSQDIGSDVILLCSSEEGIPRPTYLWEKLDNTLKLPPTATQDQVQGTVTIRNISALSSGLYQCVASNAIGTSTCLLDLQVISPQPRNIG

T3: GARS, endogenous in H929 multiple myeloma cells (human, UniProt P41250 37-739, limits assumed)
T3 construct: Native protein pulled down from H929 lysates; also called Glycyl-tRNA synthetase; GlyRS
T3 sequence: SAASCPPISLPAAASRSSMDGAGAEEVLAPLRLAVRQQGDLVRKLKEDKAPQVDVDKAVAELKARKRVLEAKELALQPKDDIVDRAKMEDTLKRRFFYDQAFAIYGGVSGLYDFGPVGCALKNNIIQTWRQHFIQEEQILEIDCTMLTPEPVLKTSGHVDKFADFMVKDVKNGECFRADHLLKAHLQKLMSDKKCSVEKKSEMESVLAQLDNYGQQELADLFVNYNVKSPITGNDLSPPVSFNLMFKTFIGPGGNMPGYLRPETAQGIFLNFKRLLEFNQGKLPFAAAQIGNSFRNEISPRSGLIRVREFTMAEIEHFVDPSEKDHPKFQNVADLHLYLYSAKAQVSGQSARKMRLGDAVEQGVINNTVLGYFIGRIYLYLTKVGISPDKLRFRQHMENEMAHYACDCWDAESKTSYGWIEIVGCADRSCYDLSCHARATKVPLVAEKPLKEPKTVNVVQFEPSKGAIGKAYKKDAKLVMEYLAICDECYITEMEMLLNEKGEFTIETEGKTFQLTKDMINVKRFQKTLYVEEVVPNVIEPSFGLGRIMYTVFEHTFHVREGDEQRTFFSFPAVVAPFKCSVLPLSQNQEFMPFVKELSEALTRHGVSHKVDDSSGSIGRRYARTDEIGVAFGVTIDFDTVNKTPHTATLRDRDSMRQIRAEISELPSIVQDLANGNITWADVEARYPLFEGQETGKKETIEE

T4: SELL (L-Selectin)
T4 construct: coated protein in the ELISA; also called SELL-Fc-His (R&D Systems)
T4 chain: T1 chain

B1: HW-8 chimeric rabbit-human IgG1 LA/LA/PG (antibody, V domains shown)
VH: QSLEESGGRLVTPGTPLTLTCTVSGFSLSSYAMSWVRQAPGKGLEWIGAISTGGSTTYASWAKGRFTISKTSSTTVDLKMTSLTTEDTATYFCVRHFRLWGPGTLVTISS
VL: QVLTQTPSSVSAAVGGTVTIKCQASQSIGSALAWFQQKPGQRPKLLIYRASNLASGVPSRFKGSGSGTEFALTISGVQREDAATYYCLGGAAAVWAFGAGTNVEIKR
notes: Fc-silenced (L234A/L235A/P329G) IgG1, kappa; Alexa Fluor 647-labeled in single-step flow cytometry; Cluster C-45
B2: HW-28 chimeric rabbit-human IgG1 LA/LA/PG (antibody, V domains shown)
VH: QKQLVESGGRLVTPGTPLTLTCTASGFSLSSNAMSWVRQAPGEGLQWIGTISSGGSTYYASWAKGRFTISKTSTTVTLKMTSLTTEDTATYFCARGADLHRLWGPGTLVTVSS
VL: SFVLTQPASVQVNLGQTVSLTCTGKPLSRSFASWYQQKPGQAPVLVIYRDTSRPSGVPDRFSGSSSGNTATLTISGAQAGDEADYYCATSDGSGSSYQYVFGGGTQLTVTG
notes: Fc-silenced (L234A/L235A/P329G) IgG1, lambda; Alexa Fluor 647-labeled in single-step flow cytometry; Cluster C-45
B3: HW-56 chimeric rabbit-human IgG1 LA/LA/PG (antibody, V domains shown)
VH: QSVKESEGGLFKPTDTLTLTCTASGFTVSTNAVTWVRQAPGNGLEYIGTIGRSGSAYFASWAKRRSTLTRDINLNTVTLKMTSLTAADTATYFCVRGSPGYRTAISIWGPGTLVTISS
VL: AVMTQTPSSTSAAVEGTVTINCQASQSISNRLSWFQQKPGQPPKLLIYQASTLASGVPSRFKGSGSGTEFTLTISGVQREDAATYYCLGSYSSSDASFGGGTKLEIKR
notes: as for B1
B4: HW-81 chimeric rabbit-human IgG1 LA/LA/PG (antibody, V domains shown)
VH: QKQLVESGGGLVTPGGTLTLTCTVSGFSLSSNGVSWVRQAPGKGLEYIGLIRSIGSTYYATWAKGRFTISKTSTTVDLKITSPTTEDTATYFCARGGYRNGFKLWGPGTLVTVSS
VL: QPVLTQSPSVSAALGASAKLTCTLSSAHKTYYIEWYQQQHPGKAPRYLMQLQSDGSYTKGTGVPDRFSGSSSGADRYLIISSVQAEDEADYICGVIDSAVYVFGGGTQLTVTG
notes: as for B2
B5: HW-16 chimeric rabbit-human IgG1 LA/LA/PG (antibody, V domains shown)
VH: QSLEESGGRLVTPGTPLTLTCTASGFSLSSYAMSWVRQAPGKGLEWIGTMPTGGGTYYASWAKGRFTISKTSTTVDLQITSPTTEDTATYFCAKHWNIWGPGTLVTISS
VL: DIVLTQTPSSTSTAVGDTVTINCRASQSIGRNLAWFQQKPGQPPKLLIYRASNLASGVPSRFKGSGSRTQFTLTISGVQREDAATYYCLGSYSSSDTAFGGGTELEILR
notes: as for B1
B6: HW-45 chimeric rabbit-human IgG1 LA/LA/PG (antibody, V domains shown)
VH: QKQLVESGGRLVTPGTPLTLTCTVSGFSLSSYAMGWFRQAPGKGLEWIGIINSYGSTYYASWAKGRFTISKTSTTVDLKITSPTTEDTATYFCGRRIGSARFDPWGPGTLVTVSS
VL: B2 VL with G24A, K25D, P26T, F31Y, V46L, S52R, Q98R, Y99L
notes: Fc-silenced (L234A/L235A/P329G) IgG1, lambda; Alexa Fluor 647-labeled in single-step flow cytometry; Prototype of cluster C-45

Molecular target: T1, SELL
Assay: ELISA on coated protein
Experimental: (§1) Recombinant purified ECDs (50-150 ng) of each putative target protein were coated, incubated with 150 ng of the indicated primary antibody, and binding was detected using a peroxidase-conjugated anti-human Fab secondary antibody. Heatmap represents averages of technical triplicates. (8B) Target validation via siRNA knockdown. H929 cells were transfected with siRNA pools targeting the putative antibody targets ICAM1, CADM1, and PTPRG. Cells were then subjected to cognate IgG binding analysis via flow cytometry. (NT, non-targeting siRNA).
(§2) ELISA ELISA was conducted as described previously. Briefly, 50-150 ng of antigen was coated overnight in half-area 96-well plates at 4° C., blocked with 3% BSA at 37° C. for 1 h, and 150 ng of chimeric rabbit/human IgG1 was added, incubating for 2 h at 37° C. […] After incubating at 37° C. for 15 min-1 h (depending on intensity of controls), data were acquired using a SpectraMax M5 plate reader (Molecular Devices).

B1: no binding (tested: 150 ng IgG1 per well).

Molecular target: T2, IGSF11
Assay: ELISA on coated protein
Experimental: as §1, §2

B1: no binding (tested: 150 ng IgG1 per well).

Molecular target: T3, GARS, endogenous in H929 multiple …
Assay: flow cytometry, H929 + CDH18 siRNA; None 443; surface target GARS putative

Point of comparison: B4, “mAb binding (MFI)” value 193000. Against it:
- B1 — lower, 75300
- B2 — lower, 164000
- B3 — higher, 400000
- B5 — lower, 174000
- B6 — lower, 59600

Molecular target: T4, SELL (L-Selectin)
Assay: ELISA on coated SELL-Fc-His
Experimental: as §1, §2

B1: no binding (tested: 150 ng IgG1 per well).
B4: no binding (tested: 150 ng IgG1 per well).

Molecular target: T3, GARS, endogenous in H929 multiple …
Assay: flow cytometry, H929 + CDH18 siRNA; None 0.19; surface target GARS putative

Point of comparison: B1, “Cells stained (%)” value 99.4%. Against it:
- B2 — the same, 99.4%
- B3 — higher, 99.9%
- B4 — lower, 99.3%
- B5 — lower, 98.6%
- B6 — the same, 99.4%

Molecular target: T3, GARS, endogenous in H929 multiple …
Assay: flow cytometry, H929 + vehicle; None 2.74; surface target GARS putative

Point of comparison: B5, “Cells stained (%)” value 99.1%. Against it:
- B1 — lower, 84.7%
- B2 — lower, 98.6%
- B3 — higher, 99.5%
- B4 — higher, 99.7%
- B6 — lower, 96.8%

— patent US20260049134A1 (UNIVERSITY OF FLORIDA RESEARCH FOUNDATION, published 2026)
